The nature of the data set: label from the status in PepcDB records.
As to “MGLLSDPVRRRALARLVLRLNAPLCVLSYVAGIAWFLALVFPPLTQRTYMSENAMGSTMVEEQFAGGDRARAFARDFAAHRKKSGALPVAWLERTMRSVGLEVYTQSFSRKLPFPDETHERYMVSGTNVYGILRAPRAASTESLVLTVPCGSDSTNSQAVGLLLALAAHFRGQIYWAKDIVFLVTEHDLLGTEAWLEAYHDVNVTGMQSSPLQGRAGAIQAAVALELSSDVVTSLDVAVEGLNGQLPNLDLLNLFQTFCQKGGLLCTLQGKLQPEDWTSLDGPLQGLQTLLLMVLRQASGRPHGSHGLFLRYRVEALTLRGINSFRQYKYDLVAVGKALEGMFRKLNHLLERLHQSFFLYLLPGLSRFVSIGLYMPAVGFLLLVLGLKALELWMQLHEAGMGLEEPGGAPGPSVPLPPSQGVGLASLVAPLLISQAMGLALYVLPVLGQHVATQHFPVAEAEAVVLTLLAIYAAGLALPHNTHRVVSTQAPDRGWMALKLVALIYLALQLGCIALTNFSLGFLLATTMVPTAALAKPHGPRTLYAALLVLTSPAATLLGSLFLWRELQEAPLSLAEGWQLFLAALAQGVLEHHTYGALLFPLLSLGLYPCWLLFWNVLFWK”, the protein production entry was “failed”.

As for “MGLMKFQLFIQPKLDVLQGNIVEYEILLRDDSAVPRFPLSELEAVLADEELYLAFSEWFSEAFLDVLKKYPNDRFAINIAPQQLFYIETLHWLDKLKSESHRITVEMTEDIFDVPGHKRHLNANDKNAFILNKIKVIHGLGYHIAIDDVSCGLNSLERVMSYLPYIIEIKFSLIHFKNIPLEDLLLFIKAWANFAQKNKLDFVVEGIETKETMTLLESHGVSIFQGYLVNKPFPV”, the protein production entry is recorded as “not failed”.

Regarding “MGLNSKAEVAKSRKNAAEAEQKDRQTREKEEQYWREAEGPKSKAVKKREEEAEKKAETAAKKLEAKRLAEQEEKELEKALKKPDKKANRVTVPVPKVTEAELIRRREEDQVALAKKAEDSKKKQTRMAGEDEYEKMVLVTNTNRDDSLIEAHTVDEALARITVSDNLPVDRHPEKRLKASFKAYEEVELPRLKSEKPGLTHTQYKDLIWKMWKKSPDNPLNQAAAAAANE”, the protein production result is on record as “failed”.

For “MGLSNKFKSFFFLDEEEEYYEEEVAREPEPMQKKTKKEKPSKNRFYAVEEEDAKVVSMQGAQFSSRMVLAEPRVYAEAQELADYLKDYKTVVVNLQRISHDQATRIVDFLSGTVYALGGDIQRVGNNIFLTPDNVEVNGSISEMLDEQNFMLEHHHHHH”, the protein production entry is “failed”.

Regarding “MGMTVVIILVFSFFVAIVTAETSPYIIHMDLSAKPLPFSDHRSWFSTTLTSVITNRKPKIIYAYTDSVHGFSAVLTNSELQRLKHKPGYVSFTKDLPVKLHTTFSPKFIGLNSTSGTWPVSNYGAGIVIGIIDTGIWPDSPSFHDDGVGSVPSKWKGACEFNSSSLCNKKLIGAKVFNKGLFANNPDLRETKIGQYSSPYDTIGHGTHVAAIAAGNHVKNASYFSYAQGTASGIAPHAHLAIYKAAWEEGIYSSDVIAAIDQAIRDGVHVISLSLGLSFEDDDDNDGFGLENDPIAVASFAAIQKGVFVVTSGGNDGPYYWSLINGAPWIMTVGAGTIGRQFQGTLTFGNRVSFSFPSLFPGEFPSVQFPVTYIESGSVENKTLANRIVVCNENINIGSKLHQIRSTGAAAVVLITDKLLEEQDTIKFQFPVAFIGSKHRETIESYASSNKNNATAKLEFRKTVIGTKPAPEVGTYSSRGPFTSFPQILKPDILAPGTLILSAWPSVEQITGTRALPLFSGFNLLTGTSMAAPHVAGVAALIKQVHPNWSPSAIKSAIMTTALTLDNPLAVGAGHVSTNKVLNPGLIYDTTPQDFINFLCHEAKQSRKLINIITRSNISDACKKPSPYLNYPSIIAYFTSDQSSPKIFKRTLTNVGEAKRSYIVRVRGLKGLNVVVEPKKLMFSEKNEKLSYTVRLESPRGLQENVVYGLVSWVDEDEAEFEVSCSVVATSLVQES”, the protein production entry was “failed”.

Regarding “MGNDNVTIKLEHRVKTSADLSDYVYKYERAYTDALNNGDDIKEASESTKKELNQLIDRTDLTYSDGMYDKETGIAAIAVKDKNTGETYIAYAGTNKDADGATDFISDANIGANNSAYLKRLGDKATSFYDRVQSNGDNITVTTGHSYGDFLASRVAIELIPFFINFRKVNDSFHFCY”, the protein production entry is reported as “failed”.

For “MGNGLAKCLIDGDTETFWHAKWQGGSDPLPYDIVIDMKQNIQIAQVELLPRGRGSNNPIKVVEFAASEDNVNWTPIGRFGFTNQDAALEYYVKSIKARYIRLTIPDDGGNSTVAAIRELDVKGTIINLEHHHHHH”, the protein production result was “failed”.

With “MGNHFSKLGFVLAALGSAIGLGHIWRFPYMTGVSGGGAFVLLFLFLSLSVGAAMFIAEMLLGQSTQKNVTEAFKELDINPKKRWKYAGLLLVSGPLILTFYGTILGWVLYYLVSVSFNLPNNIQESEQIFTQTLQSIGLQSIGLFSVLLITGWIVSRGIKEGIEKLNLVLMPLLFATFFGLLFYAMSMDSFSKAFHFMFDFKPKDLTSQVFTYSLGQVFFSLSIGLGINITYAAVTDKTQNLLKSTIWVVLSGILISLVAGLMIFTFVFEYGANVSQGTGLIFTSLPVVFGQMGAIGILVSILFLLALAFAGITSTVALLEPSVMYLTERYQYSRFKVTWGLVALIFVVGVVLIFSLHKDYKDYLTFFEKSLFDWLDFASSTIIMPLGGMATFIFMGWVLKKEKLRLLSVHFLGPKLFATWYFLLKYITPLIVFSIWLSKIY”, the protein production result is given as “failed”.

Consider “MGNMISAVVAAAGRGSRMMRDMAELGLEPVHKLLLPLNGVTVIEATVKAVLSAGVDECIVVTGHRAGEVEEALSGMDVRVVRNDPVDVPLSASLLRGVRAAGGDIILCAAGDQPAVSPATLRRIAEHADGSTVSILARGESGWLDNARGIGMPLAAGADLLRDYLPLGDGNINPLLWMMLEDGVRLYGVEASRPIELVNINHYSDYLRIRDHFLRTNADGN”, for which the protein production entry was “failed”.

In the case of “MGPIGAEADENQTVEEMKVEQYGPQTTPRGELVPDPEPELIDSTKLIEVQVVLILAYCSIILLGVIGNSLVIHVVIKFKSMRTVTNFFIANLAVADLLVNTLCLPFTLTYTLMGEWKMGPVLCHLVPYAQGLAVQVSTITLTVIALDRHRCIVYHLESKISKRISFLIIGLAWGISALLASPLAIFREYSLIEIIPDFEIVACTEKWPGEEKSIYGTVYSLSSLLILYVLPLGIISFSYTRIWSKLKNHVSPGAANDHYHQRRQKTTKMLVCVVVVFAVSWLPLHAFQLAVDIDSQVLDLKEYKLIFTVFHIIAMCSTFANPLLYGWMNSNYRKAFLSAFRCEQRLDAIHSEVSVTFKAKKNLEVRKNSGPNDSFTEATNV”, the protein production entry is recorded as “failed”.

As for “MGPVPIKLALVIPNYNHSAAISQALSELAALNLPCYLIDDGSNDETRYLLQSLAEQHDWVTLLQHPYNRGKGAAVMTGLRSAYRDGFTHALQVDADGQHNLSDIPAMLAKAQAKPDALISGKPEYDKSVPKGRLYGRYLTHFWVWVETLSFDIQDSMCGFRVYPLAATERLFSKQALTERMDFDIEILVKLYWQGVEILFHPTKVIYPENGVSHFQCVADNVRISKLHTRLFFGMLKRLPQLLRRKQAAKSTSSAHTATHWSAMKERGSYWGIKLLVESYRFGGHWLCRAIMYPVICYFFLTGKVSREASRDFLRRVQHLEPQHPQLNQPVGWRDSLNHFIAFGNAALDRIDAWCDRIQLSQVDFPDRQVLADQLESGKGAVLLVSHLGNLELCRAISIHQRKVKVNVMVLTSHAENFNNVLKQLNPNSSLNLIQVTELNPATSMLLQQKIEDGELVVIAGDRTSSHAQGRVVYAPFMGQDAAFPQGPFILAGLLDCPVYLMFCLREQGRYRVHLERFAETLKGPRAGRMERLQQAVYRYSERLEHYARREPLQWFNFFDFWRDDNQVNRATSAHKTTAALPEQERTTDRTEHLLEHHHHHH”, the protein production entry was “not failed”.

With “MGQIPPQPVRRVLPLMVVPGNGQKWRNRTETEEAMGDTYRDPVDHLRTTRPLAGESLIDVVHWPGYLLIVAGVVGGVGALAAFGTGHHAEGMTFGVVAIVVTVVGLAWLAFEHRRIRKIADRWYTEHPEVRRQRLAG”, the protein production entry is “failed”.

Regarding “MGQIQQPIQGYDSTSPCGDNRDPQPFDFNFIFAFQPIVNIKNGHIYAQEALVRGLKGEGAHSILSRIDENNRYSFDQKARDKALQSALSCNWDGAISINFMPNAVYYPEYCLSQTLSTCEKLGINPARLIFEWSEKEYLTEYDHIRHVISRYKHLNFKVAFDDFGGLYSNFNLLTAYHPDIIKLDRHYVVGIEHDKRRRAVVKAMVGLCRDLGIDFVVEGVETIEEFKVLQDLGVDLMQGFLLARPALMQMPQATMPP”, the protein production result is “failed”.

As for “MGQMISEMRHGVRRPVWHDLAERFDEPRECLASFLALEAAEVLAGEKPANLIGIANRTRACGRNLYVLWKQWGAMVLGESGLAVRELSDRGDSLLLLLYRPEALEALLRRPSASAVLARAGYGAATGLDEVLTELSTRIDGDRFPHEIGVFLGYPLKDVAAFMGLVRIPFACQGPWKIFGDPRESLRLAEVFRCCRARMAERLNRCTSALDCLADGSPRPVVGFDEIESHSYGGKAMCIAVIGGMDRLEKHYREEAVRSGVELRMFSQSENNIAVKLKRFDALVIFTNKVSHRVKNEAMAVAKQNGIPVFMHHSCGVCTLRDCLSCLTATVAHVGESDRPDLGRRKNHS”, the protein production result is reported as “failed”.

As for “MGQVEVIDRRQSVFGDDIQLQKRSSSYEIISNGVFLMSTENGRSEREMVTLGAQHMKNAVHSVLIGGLGVGITADEAVHLNDHVQVHVVEIEPSVVEWQYRYLYPFSNQALEHERTAIIISDIQQWLRTNERTYDLICLDTDNGPDWMVHKQNASLYGKIGLELVRERVRVGGAVSFWSASASESFLHELETLFDRVYEHAVSLEHHHHHH”, the protein production result is given as “failed”.

Turning to “MGRGRKHTDAAAEQRELAIKANIVDEPFSVSAIDRSIRKAEWVKTETDQILSGRCPETDGTWLGISTRGRVAFLVEAGTINRDRFNGAESRTLEFLESNESPEDFAKSSAADYIRNKNTAAFHLIVADIASNSMLYISKPRFSDYGIVYTEPVGPGVHTLSSAGLDSDVGYRDLRMRHSFCEMINRERLPPIRDIAEIMYDPVKAYESVLLSSIFFVDMKIGYEHYGTRITTALVVKRTKEVLFFERYREIFNDDWDDHDFAFTII”, the protein production result is “failed”.

Take “MGRKMGISGKLYSFLYLRGFKVWVSYRTQTVLTVLGWVLPVFTYYFTGTALGNRLVNEVGVSNYTAFFTIGLAFQGYVSSVISTISQRLRNEQLYGTIEYYVISRTGTFGFLLYSALWGLTLNTINAIIILAVGFALNIHYNVNIVSAIVIIVLLILSTLGIGMIAGAVTMVTKQGNPISFFFNTFTNLLGGTVFPVTVLPLYVRYISYGIPLTWALEGLREAFLNGAPITDIAPFIIILTIFDIVLLPLGVFSYNHAFKKAREKGTLGEY”: the protein production entry was “failed”.

With “MGRKPIKAGAIPRFRVRPQKSGVVYYYYDHGGKPRKETPLGRDYGLAIKRWAELEHAQITPAIAVTFRHVAERYRAEVIPTKAYNTQRMHHVYLNYLLQFFDDPPAPFESIKPVNIRQYLDWRPFKVSANREVALFSHLWNWARSKGITDLPNPCGGIRRNKERGRDVYIDDTTYRAVYQAADQTLRDAMDLAYLTGQRVSDVVSMDERHIVNGALEICQAKTGVKLAIAITGELAVLIKRIFDRKRGMKLRSTRLIVDEKGLGLNWKKLAYRFRKVRAAAGIAKEVFQFRDLRAKAATDKADLAGDIRQAQAQLGHTSVVMTEHYVRKRKGAKVTPTR”, the protein production result was “failed”.

Regarding “MGRLVSLLPSATDLIFELGLGEQLLGVSHCCDHPGAASLPVLTRSIIGSDLPQAEIDRAVSEAVRAGRALYTVDGPLLDRLRPDLVVTQGVCEVCAVTPGTVAEAVRFLPGCLPAEQVLSLEGKTFAGILADLRALARAAGLEHHHHHH”, the protein production entry is listed as “failed”.

Regarding “MGRPRVARLDRERIAEAALELVDRDGDFRMPDLARHLNVQVSSIYHHAKGRAAVVELVRHRVVREIDGSAFERLPWDEAFSEWARSYRAAFSRHPTAIRLLATETVRDPGSLSVYHSAAAGLRGAGFPDDHIMAVITAAENFLLGAALDAAAPEVMIEADSTTTDDALTRALAAAPRGPERAEQAFELGLAALLAGFHHLLQECGAVQR”, the protein production entry was “not failed”.

Source of the values: a protein production outcome set (Wang et al. 2014).
